This is an account of results in US20020146411A1, “Anticoagulant agents useful in treatment of thrombosis” (SmithKline Beecham Corporation, priority 1996, published 2002).

Residue numbers refer to the chain shown, from its start.

The target of assay [1] is human Factor IX (human) (UniProt P00740). The experiment in a line: cell-based or functional assay.
The target in assay [2] is recombinant human Factor IX (rhFIX, Genetics Institute) (human) (UniProt P00740). Nature of the assay: titration calorimetry.
Chain of recombinant human Factor IX (rhFIX, Genetics Institute) (human) (P00740 47-461 limits assumed): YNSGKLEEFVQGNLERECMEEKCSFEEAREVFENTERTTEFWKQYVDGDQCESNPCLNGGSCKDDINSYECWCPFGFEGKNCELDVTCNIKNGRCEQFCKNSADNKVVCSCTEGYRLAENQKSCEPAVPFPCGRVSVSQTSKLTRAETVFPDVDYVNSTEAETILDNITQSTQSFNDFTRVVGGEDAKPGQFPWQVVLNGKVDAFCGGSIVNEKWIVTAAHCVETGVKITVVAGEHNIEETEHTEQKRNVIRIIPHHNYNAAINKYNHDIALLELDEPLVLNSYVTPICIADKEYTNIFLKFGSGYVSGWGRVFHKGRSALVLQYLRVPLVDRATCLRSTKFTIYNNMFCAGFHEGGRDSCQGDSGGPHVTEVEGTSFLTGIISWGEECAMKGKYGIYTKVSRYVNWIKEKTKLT
Assay [3] has the same target. Nature of the assay: BIAcore, antibody captured on immobilised protein A, rhFIX at 49 nM, 5 mM Ca2+.
Assay [4] has the same target. Nature of the assay: BIAcore, calculated from kdiss and kass.
Assay [5] has the same target. The experiment in a line: titration microcalorimetry, 106 uM FIX injected into 2 uM mAb.
The target is the same in assay [6]. Nature of the assay: titration calorimetry, 37° C., 10 mM CaCl2.
The target is the same in assay [7]. The experiment in a line: isothermal titration calorimetry, 25° C. On the technique in general: ITC needs no label: the signal is the heat of the interaction.
For assay [8] the target is unchanged. Nature of the assay: biosensor (BIAcore).
For assay [9] the target is unchanged. Nature of the assay: isothermal titration calorimetry.
The target is the same in assay [10]. The experiment in a line: titration calorimetry, 25° C. (calculated from the van't Hoff equation), 10 mM CaCl2.
Assay [11] shares this target. Nature of the assay: BIAcore, calculated.
For assay [12] the target is unchanged. Nature of the assay: BIAcore kinetics of Factor IX binding. On the technique in general: In SPR one partner is held on a chip, and binding of the other changes the refractive index at the surface.

Chain of human Factor IX (human) (P00740 47-461 limits assumed): as above

B1: murine anti-Factor IX monoclonal antibody BC2 (antibody, mouse IgG2a, V domains shown)
VH: QIQLVQSGPELKKPGETVKISCKASGYTFTNYGMNWVKQAPGKGLKWMGWINTRNGKSTYVDDFKGRFAFSLESSASTANLQIDNLKDEDTATYFCTREGNMDGYFPFTYWGQGTLVTVSA
VL: QIVLSQSPAILSASPGEKVTMTCRASSSVNYMHWYQQKPGSSPKPWIYATSNLASGVPARFSGSGSGTSYSLTISRVEAEDAATYYCQQWSINPRTFGGGTKLEIKR
As for B1, in assay [1], the IC50, nM (aPTT of human plasma) was found to be 50 nM; the aPTT at saturating antibody was 90 s; the aPTTmax / aPTTnormal × 100 % came out at 350%.

B2: humanized anti-Factor IX monoclonal antibody SB 249417 (antibody, V domains shown)
VH: QVQLVQSGSELKKPGASVKVSCKASGYTFTNYGMNWVRQAPGQGLKWMGWINTRNGKSTYVDDFKGRFVFSLDSSVSTAYLQISSLKADDTAVYYCTREGNMDGYFPFTYWGQGTLVTVSS
VL: QIVLTQSPSSLSASVGDRVTITCRASSSVNYMHWYQQKPGKAPKPWIYATSNLASGVPSRFSGSGSGTDYTFTISSLQPEDIATYYCQQWSINPRTFGQGTKVEIKR
For the molecule B2, the Molar Binding Ratio FIX/mAb in [2] came to 1.5 FIX/mAb. Moreover, the koff stood at 0.00041 s⁻¹ in assay [3] and 0.0004 s⁻¹ in [8]. The kon in assay [3] and in assay [8] was 200000 M⁻¹ s⁻¹ in each case. The Kd in assay [4] is 1.9 nM; in assay [6] it was 12 nM; in assay [7], 4 nM; in assay [8] it was 2 nM; in assay [10], 4 nM. The molar binding ratio at the equivalence point in assay [5] came out at 2 FIX per mAb. Moreover, the Stoichiometry of Factor IX Binding (moles Factor IX per mole mAb) in assay [9] was 1.5.

B3: humanized anti-Factor IX monoclonal antibody SB 249413 (antibody, V domains shown)
VH: B2 VH with K46E, S74T, T97A
VL: EIVLTQSPATLSLSPGERATLSCRASSSVNYMHWYQQRPGQAPRLLIYATSNLASGIPARFSGSGSGTDFTLTISSLEPEDFAVYYCQQWSINPRTFGGGTKVEIKR
B3: in [2], the Molar Binding Ratio FIX/mAb came to 1.9 FIX/mAb. The Kd was 3.7 to 5.1 nM in [11], 12 nM in assay [6] and 6 nM in [10]. In [12], the koff amounted to 0.0028 s⁻¹. The kon in assay [12] stood at 650000 M⁻¹ s⁻¹.

B4: humanized anti-Factor IX monoclonal antibody SB 257732 (antibody, V domains shown)
VH: B2 VH with V2I, K46E, S74T, D89E, Y95F
VL: B2 VL with F72L, I82F, Q99G, V103L
With B4, the Molar Binding Ratio FIX/mAb in [2] came to 1.8 FIX/mAb. Besides, the values for the Kd in [11], in assay [6] and in [10] were 1.5 nM, 9 nM and 4 nM, respectively. In addition, the koff in [12] stood at 0.0012 s⁻¹. Also, the kon in [12] is 1.1e+06 M⁻¹ s⁻¹.

B5: humanized anti-Factor IX monoclonal antibody SB 249415 (antibody, V domains shown)
VH: B2 VH
VL: B3 VL with R44K, L45P, L46W, I57V
Take B5: in [2], the Molar Binding Ratio FIX/mAb worked out at 1.7 FIX/mAb. Besides, the Kd in [11] is 1.1 to 2.3 nM; in assay [6], 7 nM; in [10], 3 nM. In addition, in assay [12], the koff turned out to be 0.00018 s⁻¹. Besides, the kon in assay [12] worked out at 750000 M⁻¹ s⁻¹.

B6: humanized anti-Factor IX monoclonal antibody SB 257731 (antibody, V domains shown)
VH: B2 VH
VL: QIVLTQSPATLSLSPGERATLSCRASSSVNYMHWYQQRPGQAPKPWIYATSNLASGVPARFSGSGSGTDYTLTISSLEPEDFAVYYCQQWSINPRTFGGGTKVEIK
Regarding B6, in assay [11], the Kd was 1.1 nM. Further, in [12], the koff came to 0.00099 s⁻¹ and the kon was found to be 920000 M⁻¹ s⁻¹.

B7: humanized anti-Factor IX monoclonal antibody SB 249416 (antibody, V domains shown)
VH: B2 VH
VL: B3 VL with R44K, L45P, L46W, I57V, F70Y
As for B7, in assay [11], the Kd is 0.8 nM. In assay [12], the koff came to 0.00041 s⁻¹ and the association rate constant (kon) is 520000 M⁻¹ s⁻¹.

A word on the koff: it is the first-order rate constant of dissociation. As a reminder, the kon is a measure of how fast the partners come together. As usually defined, the Kd is a measure of binding affinity in units of concentration.
